Experimental data published in article PMC5339670 (The Journal of Experimental Medicine, 2017).

Biological target: T1, Recombinant His-tagged WASp (mouse, UniProt P70315 1-520)
T1 sequence (looked up): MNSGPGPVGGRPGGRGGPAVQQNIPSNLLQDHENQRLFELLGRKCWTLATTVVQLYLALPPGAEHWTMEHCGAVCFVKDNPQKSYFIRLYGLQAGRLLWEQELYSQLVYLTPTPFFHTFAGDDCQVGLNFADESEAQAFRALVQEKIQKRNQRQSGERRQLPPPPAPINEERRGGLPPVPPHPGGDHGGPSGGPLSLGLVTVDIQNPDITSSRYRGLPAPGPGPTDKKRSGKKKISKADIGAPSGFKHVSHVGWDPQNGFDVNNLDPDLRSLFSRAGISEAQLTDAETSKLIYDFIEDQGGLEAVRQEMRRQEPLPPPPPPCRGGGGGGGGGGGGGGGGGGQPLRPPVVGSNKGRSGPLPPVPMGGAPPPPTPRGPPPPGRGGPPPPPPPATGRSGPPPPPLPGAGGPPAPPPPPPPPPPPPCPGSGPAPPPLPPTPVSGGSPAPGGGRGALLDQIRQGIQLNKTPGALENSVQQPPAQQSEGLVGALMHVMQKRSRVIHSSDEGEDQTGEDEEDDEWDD
Assay: pull-down

B1: GST fusion protein of the Skap2 SH3 domain (domain or fragment, mouse, UniProt Q3UND0 296-357, looked up)
chain: DYANFYQGLWDCTGALSDELSFKRGDVIYILSKEYNRYGWWVGEMKGAIGLVPKAYLMEMYD
binding result: binds
